These results are taken from PMC5378893 (Scientific Reports, 2015).

The labels stand for the following.
B1: GH2-75 IgG (antibody, V domains shown)
VH: EVQLVESGGGLVQPGGSLRLSCAASGSTIGNSGIHWVRQAPGKGLEWVAYIGPYGGYTSYADSVKGRFTISADTSKNTAYLQMNSLRAEDTAVYYCARFDDYHWDGMDYWGQGTLVTVSS
VL: DIQMTQSPSSLSASVGDRVIITCRASQDVSGYVAWYQQKPGKAPKLLIYSSGVPSRFSGSGSGTDFTLTISSLQPEDFATYYCQQYYNWPVTFGQGTKVEIK
notes: source: HEK293-F, transient transfection, purified (Protein A, Superdex 200)
B2: GH2-65 IgG (antibody, V domains shown)
VH: EVQLVESGGGLVQPGGSLRLSCAASGFTIDDWGIHWVRQAPGKGLEWVAWIWPYWGYTFYADSVKGRFTISADTSKNTAYLQMNSLRAEDTAVYYCARFLDWNNNWMDYWGQGTLVTVSS
VL: DIQMTQSPSSLSASVGDRVTITCRASQDVSGWVAWYQQKPGKAPKLLISSASFLYSGVPSRFSGSGSGTDFTLTISSLQPEDFATYYCQQYYDFPVTFGQGTKVEIK
notes: as for B1
B3: GH2-66 IgG (antibody, V domains shown)
VH: EVQLVESGGGLVQPGGSLRLSCAASGFTIGNWGIHWVRQAPGKGLEWVAYIWPYWGFTYYADSVKGRFTISADTSKNTAYLQMNSLRAEDTAVYYCARFLDWNLLWMDYWGQGTLVTVSS
VL: DIQMTQSPSSLSASVGDRVTITCRASQDVYSYVAWYQQKPGKAPKLLISYASGLYSGVPSRFSGSGSGTDFTLTISSLQPEDFATYYCQQYYNSPITFGQGTKVEIK
notes: as for B1
B4: GH2-81 IgG (antibody, V domains shown)
VH: EVQLVESGGGLVQPGGSLRLSCAASGFTINDYGIHWVRQAPGKGLEWVAGIGPFGGYTSYADSVKGRFTISADTSKNTAYLQMNSLRAEDTAVYYCARFGVLFDGVMDYWGQGTLVTVSS
VL: DIQMTQSPSSLSASVGDRVTITCRASQDVNDGVAWYQQKPGKAPKLLISFTTGLYSGVPSRFSGSGSGTDFTLTISSLQPEDFATYYCQQYYNWPITFGQGTKVEIK
notes: as for B1
B5: GH2-78 IgG (antibody, V domains shown)
VH: EVQLVESGGGLVQPGGSLRLSCAASGFTINNWGIHWVRQAPGKGLEWVAGIGPYGGYTSYADSVKGRFTISADTSKNTAYLQMNSLRAEDTAVYYCARFGVIIDGIMDYWGQGTLVTVSS
VL: DIQMTQSPSSLSASVGDRVTITCRASQDVNNSVAWYQQKPGKAPKLLISWPTGLYSGVPSRFSGSGSGTDFTLTISSLQPEDFATYYCQQYYSWPITFGQGTKVEIK
notes: as for B1
B6: GH2-72 IgG (antibody, V domains shown)
VH: EVQLVESGGGLVQPGGSLRLSCAASGFTISNGGIHWVRQAPGKGLEWVAYIWPSGGYTFYADSVKGRFTISADTSKNTAYLQMNSLRAEDTAVYYCARFFNNDWIGMDYWGQGTLVTVSS
VL: DIQMTQSPSSLSASVGDRVTITCRASQDVGYFVAWYQQKPGKAPKLLISGTTWLYSGVPSRFSGSGSGTDFTLTISSLQPEDFATYYCQQYSNWPLTFGQGTKVEIK
notes: as for B1
B7: GH2-87 IgG (antibody, V domains shown)
VH: EVQLVESGGGLVQPGGSLRLSCAASGFTISSYGIHWVRQAPGKGLEWVAGIGPFGGFTSYADSVKGRFTISADTSKNTAYLQMNSLRAEDTAVYYCARFLNIHLGWMDYWGQGTLVTVSS
VL: DIQMTQSPSSLSASVGDRVTITCRASQDVNNSVAWYQQKPGKAPKLLIFGTRYLYSGVPSRFSGSGSGTDFTLTISSLQPEDFATYYCQQYYNYPLTFGQGTKVEIK
notes: as for B1

This assay deals with T1, extracellular domain (ECD) of human epidermal growth factor receptor 2 (HER2) (Homo sapiens, UniProt P04626).
T1 construct: human epidermal growth factor receptor 2 (HER2), extracellular domain; also called HER2/ECD
The assay can be described thus: SPR; BIAcore T200; HER2/ECD immobilised on a CM5 chip by amine coupling to 1000 RU; IgG flowed in PBST (0.05% Tween 20) at 30 uL/min; regeneration 10 mM glycine pH 1.5; global fit to a 1:1 binding model. As to conditions: both partners purified. For orientation: Surface plasmon resonance follows binding to a sensor surface in real time, without labels.
Regarding B1, the Kd is 0.177 nM, the koff turned out to be 0.000149 s⁻¹ and the kon amounted to 840000 M⁻¹ s⁻¹.

With B2, the affinity, expressed as Kd, was 31.8 nM; the off-rate (koff) is 0.0111 s⁻¹; the kon was 350000 M⁻¹ s⁻¹.

Molecule B3 returned a dissociation constant (Kd) of 54.5 nM, a koff of 0.328 s⁻¹ and a kon of 6.03e+06 M⁻¹ s⁻¹.

Turning to B4, the Kd worked out at 13.4 nM, the koff is 0.0131 s⁻¹ and the association rate constant (kon) was 975000 M⁻¹ s⁻¹.

With B5, the dissociation constant Kd amounted to 49.4 nM, the koff turned out to be 0.00163 s⁻¹ and the kon is 33000 M⁻¹ s⁻¹.

In the case of B6, the Kd is 11.9 nM, the koff was determined as 10.9 s⁻¹ and the kon came to 9.15e+08 M⁻¹ s⁻¹.

For B7, the affinity, expressed as Kd, was 13.3 nM; the koff turned out to be 0.00525 s⁻¹; the on-rate (kon) amounted to 395000 M⁻¹ s⁻¹.

For orientation: Kd means the constant that tells how readily two partners part at equilibrium. The term koff denotes the rate constant with which the complex falls apart. Low values mean a long-lived complex, high ones a short-lived complex. A word on the kon: it is the second-order rate constant of association. A high value points to fast association.
